Reference: patent US20250249120A1 (CHILDREN S HEALTH CARE D B A CHILDREN S MINNESOTA, published 2025)

Target: T1, CD179a (VpreB1) component of the pre-BCR surrogate light chain, on B-ALL cells (human, UniProt P12018 20-145)
T1 sequence (looked up): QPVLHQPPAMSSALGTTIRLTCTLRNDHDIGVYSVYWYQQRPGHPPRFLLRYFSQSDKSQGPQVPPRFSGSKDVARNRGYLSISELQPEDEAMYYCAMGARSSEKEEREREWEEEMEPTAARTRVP
Assay: cell-based or functional assay

B1: calicheamicin-based antibody-drug conjugate (ADC) against CD179a (antibody, human IgG1, kappa, V domains shown)
VH: EVQLVESGGGLVKPGGSLRLSCAASGFTFSNFEMNWVRQAPGKGLEWVSGISSNGRYINYADSVKGRFTISRDNAKNSLYLQMNSLRAEDTAVYYCARVVDFDQDYNGFDYWGQGTLVTVSS
VL: DIQLTQSPSFLSASVGDRVTITCRASQGISTDLNWYQQKPGKAPKLLIYAASNLESGVPSRFSGSGSGTEFTLTISSLQPEDFATYYCQQSYNWPYTFGGGTKVEIKR
modifications: AcBut-calicheamicin linker-payload, DAR of 5:1, conjugated residues not stated
Which “IC50 (the inhibitory concentration that causes 50% of cells to die), Nalm6 B-ALL cell line” value does the source give for B1 here?
Its value is 0.059 µg/mL.
